The record followed here is article PMC8183112.

Data set [1] is described as follows: western blot, relative β1 level. The following applies: glycan lost; control: wild-type β1, untreated. (A western blot detects proteins with antibodies after separation by electrophoresis.)
A short description of data set [2]: whole-cell patch clamp, current density. The conditions noted are these: glycan lost; control: wild-type BK (α+β1). Background: In patch-clamp work, channel activity is measured electrically.
A short description of data set [3]: whole-cell G-V curve, Boltzmann fit, 300 nM Ca2+. The conditions noted are these: glycan lost; control: wild-type BK (α+β1).
The nature of data set [4]: whole-cell patch clamp, 100 nM IbTx, 300 nM Ca2+. The following applies: glycan lost; control: wild-type BK (α+β1).
Data set [5] in a line: whole-cell patch clamp, 400 nM martentoxin, 300 nM Ca2+. The following applies: glycan lost; control: wild-type BK (α+β1).
Data set [6] in a line: whole-cell patch clamp, 400 nM martentoxin, no cytoplasmic Ca2+. The conditions noted are these: glycan lost; control: wild-type BK (α+β1).
Data set [7] is described as follows: activation time constant, single exponential fit, +50 to +120 mV. The following applies: glycan lost; control: wild-type BK (α+β1).
Data set [8] is described as follows: whole-cell patch clamp, 100 nM IbTX, 300 nM Ca2+. The following applies: glycan lost; control: untreated wild-type BK (α+β1).
Data set [9] in a line: whole-cell patch clamp, 400 nM IbTX, 300 nM Ca2+. The conditions noted are these: glycan lost; control: untreated wild-type BK (α+β1).
Data set [10] can be described thus: whole-cell patch clamp, 100 nM MarTX, no cytoplasmic Ca2+. The following applies: glycan lost; control: untreated wild-type BK (α+β1).
A short description of data set [11]: whole-cell patch clamp, 400 nM MarTX, no cytoplasmic Ca2+. The following applies: glycan lost; control: untreated wild-type BK (α+β1).

B1: BK channel β1 subunit: N80Q/N142Q (protein)
parent chain: MVKKLVMAQKRGETRALCLGVTMVVCAVITYYILVTTVLPLYQKSVWTQESKCHLIETNIRDQEELKGKKVPQYPCLWVNVSAAGRWAVLYHTEDTRDQNQQCSYIPGSVDNYQTARADVEKVRAKFQEQQVFYCFSAPRGNETSVLFQRLYGPQALLFSLFWPTFLLTGGLLIIAMVKSNQYLSILAAQK
Turning to B1, the expression_or_secretion result in data set [1] is recorded as “no change”. For the same protein, in [2], the “other: channel current” value was “no change”. In data set [3], the “other: voltage dependence of activation, other: V1/2” value is recorded as “no change, 65.35 ± 1.48 vs 66.52 ± 1.47, slope 22.89 ± 1.24 vs 22.55 ± 1.21”. Besides, the “other: toxin inhibition of channel current, other: fractional current remaining (If)” value in [4] is “increases, 0.46 ± 0.04 vs 0.92 ± 0.01”; in data set [6], “increases, 0.72 ± 0.099 vs 0.97 ± 0.018”. Moreover, the “other: toxin enhancement of channel current, other: fractional current remaining (If)” value in [5] is “abolishes, 1.04 ± 0.02 vs 1.13 ± 0.01”. In addition, the “other: channel activation kinetics” value in [7] is on record as “decreases”.

B2: BK channel β1 subunit: N80A/N142A (protein)
parent chain: MVKKLVMAQKRGETRALCLGVTMVVCAVITYYILVTTVLPLYQKSVWTQESKCHLIETNIRDQEELKGKKVPQYPCLWVNVSAAGRWAVLYHTEDTRDQNQQCSYIPGSVDNYQTARADVEKVRAKFQEQQVFYCFSAPRGNETSVLFQRLYGPQALLFSLFWPTFLLTGGLLIIAMVKSNQYLSILAAQK
Consider B2, for which the expression_or_secretion result in data set [1] is recorded as “no change”. Further, in data set [2], the “other: channel current” value was “no change”. The “other: toxin inhibition of channel current, other: fractional current remaining (If)” value in data set [4] is on record as “increases, 0.46 ± 0.04 vs 0.92 ± 0.01”; in data set [6] it was “increases, 0.71 ± 0.064 vs 0.97 ± 0.018”. The “other: toxin enhancement of channel current, other: fractional current remaining (If)” value in data set [5] is “abolishes, 0.99 ± 0.02 vs 1.13 ± 0.01”.

B3: BK channel β1 subunit: PNGase F (protein)
parent chain: MVKKLVMAQKRGETRALCLGVTMVVCAVITYYILVTTVLPLYQKSVWTQESKCHLIETNIRDQEELKGKKVPQYPCLWVNVSAAGRWAVLYHTEDTRDQNQQCSYIPGSVDNYQTARADVEKVRAKFQEQQVFYCFSAPRGNETSVLFQRLYGPQALLFSLFWPTFLLTGGLLIIAMVKSNQYLSILAAQK
As for B3, the “other: toxin inhibition of channel current, other: fractional current remaining (If)” value in data set [8] is recorded as “increases, 0.54 ± 0.05 vs 0.89 ± 0.01”; in data set [9], “increases, 0.43 ± 0.06 vs 0.65 ± 0.03”; in data set [10], “increases, 0.83 ± 0.03 vs 1.00 ± 0.03”; in [11], “increases, 0.63 ± 0.02 vs 1.00 ± 0.03”.

B4: BK channel β1 subunit: tunicamycin (protein)
parent chain: MVKKLVMAQKRGETRALCLGVTMVVCAVITYYILVTTVLPLYQKSVWTQESKCHLIETNIRDQEELKGKKVPQYPCLWVNVSAAGRWAVLYHTEDTRDQNQQCSYIPGSVDNYQTARADVEKVRAKFQEQQVFYCFSAPRGNETSVLFQRLYGPQALLFSLFWPTFLLTGGLLIIAMVKSNQYLSILAAQK
Consider B4, for which, in [1], the expression_or_secretion result was “no change”.
